Data: the supplement of paper PMC10567573

Assay: protein stability index of a GFP-peptide fusion (GPS, HEK-293T) (PSI 1-6); higher = more stable
Conditions: c terminus: native
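Also: lentivirally expressed fusion library, cells FACS-sorted into six equal-sized GFP/DsRed ratio bins, PSI computed from sequencing read fractions per bin weighted by bin number.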

**Q.** With EQRNSRWNTVLRAVKAKTHHLEPG [TRPA1 addG] as the protein, how does the protein stability index (parent: NP_015628.1) read?
**A.** Its protein stability index is 3.92.

**Q.** With CQPISFSGFGAEDDDLGGLGLGPG [POLD2 addG] as the protein, how does the protein stability index (parent: NP_006221.1) read?
**A.** Its protein stability index is 2.37.

**Q.** For LPALFTDLYSQEITAEEAREALPG [SNF8 addG], which protein stability index (parent: NP_009172.2) is on record?
**A.** The protein stability index was 2.8.

**Q.** With DGWIRVSSDNVADLHEKYSGSTPG [PSMB5 addG] as the protein, how does the protein stability index (parent: NP_002788.1) read?
**A.** The protein stability index was 3.
